Columns and labels:
[1] = system: cultured, non-adherent mouse neurospheres; test: Intracellular ATP assay, proliferation of cultured mouse neurospheres; format: cell-based; settings: growth media supplemented with B27; 1 nM-0.0005 nM; 3 days of treatment; FIG. 1
Description: The anterior lateral wall of the lateral ventricle of 5-6 week old mice was enzymatically dissociated in 0.8 mg/ml hyaluronidase and 0.5 mg/ml trypsin in DMEM containing 4.5 mg/ml glucose and 80 units/ml DNase at 37° C. for 20 min. The cells were gently triturated and mixed with three volumes of Neurosphere medium (DMEM/F12, B27 supplement, 125 mM HEPES pH 7.4) containing 20 ng/ml EGF (unless otherwise stated), 100 units/ml penicillin and 100 μg/ml streptomycin. After passing through a 70 μm strainer, the cells were pelleted at 160×g for 5 min. The supernatant was subsequently removed and the cells resuspended in Neurosphere medium supplemented as above, plated out in culture dishes and incubated at 37° C. Neurospheres were ready to be split approximately 7 days after plating.
To split the neurospheres, cells were collected by centrifugation at 160×g for 5 min. The conditioned supernatant (conditioned medium) was removed and saved. The neurospheres were resuspended in 0.5 ml Trypsin/EDTA in HBSS (1×), incubated at 37° C. for 2 min and triturated gently to aid dissociation. Following a further 3 min incubation at 37° C. and trituration, 3 volumes of ice cold Neurosphere medium medium w/o EGF were added to stop further trypsin activity. […]
After 3 days of treatment, intracelluar ATP was measured using the ATP SL kit (Biothema) according to the manufacturer's instructions.

6-OHDA Lesioned Rats = test: i.c.v. infusion in 6-OHDA lesioned rats, BrdU / NeuN labelling; format: in vivo, rat
Description: Animal handling and surgical procedures were carried out according to the ethical and regulatory permits set forth by Jordbruksverket and Lund University. Adult female Sprague-Dawley rats (B&K Universal AB) rats weighing 220-250 g, were housed in pairs with a 12 h light-dark cycle with free access to food and water. To lesion the substantia nigra, rats were fixed into a stereotaxic frame and 6-OHDA ([…] in 0.02% ascorbate saline, Sigma) was injected at a rate of 1 μl/min in 2 deposits of 2 and 2.5 μl into the right ascending mesostriatal forebrain bundle at the following coordinates: 4.4 mm caudal to bregma, 1.2 mm lateral to midline, 7.8 mm below dura; 4.0 mm caudal, 0.8 mm lateral, 8.0 mm below dura, respectively (Paxinos and Watson, 1998). Three weeks after 6-OHDA injections, the completeness of the lesion was assessed with the amphetamine-induced rotation test. D-methylamphetamine (2.5 mg, i.p.) was injected 5 min prior to placing the rat in an automated rotormeter bowl that measured the number of rotations over 90 min.
Before implantation, an Alzet Model 2002 osmotic minipump (200 μl; flow rate: 0.5 μl/h, 12 μl/day) was prefilled with 200 μl of compound solution (see below) and placed in a NaCl (0.9%) solution warmed in water bath (37° C.) 36 hrs before implantation. Rats were anesthetized with halothane in a mixture of nitrous oxide/oxygen (70:30) and maintained with 2-3% halothane. For implantation, rats were placed in a stereotaxic frame and the cannula of the Alzet Brain Infusion kit II was placed into the right lateral ventricle (coordinates: AP=−0.3 mm posterior bregma, L=1.5 mm lateral to satura sagittalis, 4.5 mm the dura; Paxinos and Watson, 1998), and secured to the skull with screws and dental cement. The minipump was then placed subcutaneously in the mid-scapular region. The scalp was treated with lidocaine gel before suturing. Twelve days after insertion, the rats were briefly anaesthetized with halothane in order to remove the pump. Removed pumps had the remaining solution volume and weight recorded.
The effects of infused PDGF-BB and BDNF following 6-OHDA lesions were investigated at 2 different time points: at 12 days or 5 weeks after minipump insertion. Rats receiving human PDGF-BB (order # 220-BB-050; 50 μg, R&D Systems) each had 36 ng/d of PDGF dissolved in 0.1 M PBS (3 μg/ml). Rats receiving human recombinant BDNF (order # 248-BD-025; 25 μg, R&D Systems) each had 12 ng/d of BDNF dissolved in 0.1 M PBS (1 μg/ml). BrdU was co-administered with the compound solution in the minipumps by dissolving it into the 0.1 M PBS medium. Control rats received only BrdU/PBS infusions.
Brain tissue was obtained by anesthetizing the rat and transcardially perfusing with 0.9% saline followed by 4% paraformaldehyde (PFA). Brains were stored PFA for 2 hours, then transferred to 20% sucrose PBS and sectioned coronally on a sledge microtome at 30 μm thickness. Free-floating sections were stored in Walter's antifreeze solution at 4° C. until staining.
Following blocking, incubation of monoclonal rat anti-BrdU antibody (Harlan Sera Lab, UK) in 2% blocking solution occurred at a dilution of 1:100 at 4° C. for 36 hrs. The sections were then incubated with biotin-horse-[…] antibody (1:200) (Vector, CA) in 2% blocking solution for 2 hr and visualized with DAB-NiCl Vectastain Elite kit. The procedure for doubling labeling of BrdU with NeuN or TH was similar, except that a monoclonal rat anti-BrdU antibody (1:100; Sigma, Sweden) was incubated either with a monoclonal mouse anti-NeuN antibody (1:100; Chemicon, USA) or with a monoclonal anti-TH antibody (1:1000; Pelfreeze) in the appropriate 2% blocking solution in the dark for 36 to 48 hrs. For immunofluorescent visualization, sections were incubation in secondary antibodies: Cy3-conjugated donkey anti-rat (1:200; Jackson ImmunoResearch, PA) for BrdU; a biotinylated horse anti-mouse antibody (1:200; BA2001, Vector, CA) for NeuN; and a FITC-conjugated goat anti-rat (1:200;) for TH. […]

B1: PDGF-BB: human recombinant PDGF-BB, platelet derived growth factor B-chain homodimer (protein)
chain: SLGSLTIAEPAMIAECKTRTEVFEISRRLIDRTNANFLVWPPCVEVQRCSGCCNNRNVQCRPTQVQLRPVQVRKIEIVRKKPIFKKATVTLEDHLACKCETVAAARPVT
[1]
  proliferative effect (intracellular ATP): concentration dependent proliferative effect
6-OHDA Lesioned Rats; 5 weeks, FIG. 15
  absolute number of BrdU/NeuN double labelled cells in the striatum: significantly more neurons
6-OHDA Lesioned Rats; 12 days after infusion, compared to PBS infusion, PDGF 36 ng/d, BDNF 12 ng/d
  numbers of BrdU labelled cells in the denervated striatum: significantly elevated
6-OHDA Lesioned Rats; 12 days after infusion, compared to PBS treatment
  numbers of BrdU labelled cells in the lesioned substantia nigra: significantly elevated
6-OHDA Lesioned Rats; Week 5, no statistically significant differences
  BrdU cells in the striatum co-labelled with NeuN (proportion of newly generated neurons): 20.9%
